Experimental data from paper PMC6900781.
Values belong to the binder of their own block, whether it stands above or below them.

Legend:
Conditions in all cases: remark: other sources report otherwise
[1] = target: T1, GFP-LacI-dCENP-C (Drosophila melanogaster), Q9VHP9; test: LacI/LacO tethering and recruitment assay (immunofluorescence); as a1, but with a third Drosophila centromere protein (CAL1-V5, dCENP-A-HA or -V5, or HA-dCENP-C) co-expressed, as named in the row
T1 chain: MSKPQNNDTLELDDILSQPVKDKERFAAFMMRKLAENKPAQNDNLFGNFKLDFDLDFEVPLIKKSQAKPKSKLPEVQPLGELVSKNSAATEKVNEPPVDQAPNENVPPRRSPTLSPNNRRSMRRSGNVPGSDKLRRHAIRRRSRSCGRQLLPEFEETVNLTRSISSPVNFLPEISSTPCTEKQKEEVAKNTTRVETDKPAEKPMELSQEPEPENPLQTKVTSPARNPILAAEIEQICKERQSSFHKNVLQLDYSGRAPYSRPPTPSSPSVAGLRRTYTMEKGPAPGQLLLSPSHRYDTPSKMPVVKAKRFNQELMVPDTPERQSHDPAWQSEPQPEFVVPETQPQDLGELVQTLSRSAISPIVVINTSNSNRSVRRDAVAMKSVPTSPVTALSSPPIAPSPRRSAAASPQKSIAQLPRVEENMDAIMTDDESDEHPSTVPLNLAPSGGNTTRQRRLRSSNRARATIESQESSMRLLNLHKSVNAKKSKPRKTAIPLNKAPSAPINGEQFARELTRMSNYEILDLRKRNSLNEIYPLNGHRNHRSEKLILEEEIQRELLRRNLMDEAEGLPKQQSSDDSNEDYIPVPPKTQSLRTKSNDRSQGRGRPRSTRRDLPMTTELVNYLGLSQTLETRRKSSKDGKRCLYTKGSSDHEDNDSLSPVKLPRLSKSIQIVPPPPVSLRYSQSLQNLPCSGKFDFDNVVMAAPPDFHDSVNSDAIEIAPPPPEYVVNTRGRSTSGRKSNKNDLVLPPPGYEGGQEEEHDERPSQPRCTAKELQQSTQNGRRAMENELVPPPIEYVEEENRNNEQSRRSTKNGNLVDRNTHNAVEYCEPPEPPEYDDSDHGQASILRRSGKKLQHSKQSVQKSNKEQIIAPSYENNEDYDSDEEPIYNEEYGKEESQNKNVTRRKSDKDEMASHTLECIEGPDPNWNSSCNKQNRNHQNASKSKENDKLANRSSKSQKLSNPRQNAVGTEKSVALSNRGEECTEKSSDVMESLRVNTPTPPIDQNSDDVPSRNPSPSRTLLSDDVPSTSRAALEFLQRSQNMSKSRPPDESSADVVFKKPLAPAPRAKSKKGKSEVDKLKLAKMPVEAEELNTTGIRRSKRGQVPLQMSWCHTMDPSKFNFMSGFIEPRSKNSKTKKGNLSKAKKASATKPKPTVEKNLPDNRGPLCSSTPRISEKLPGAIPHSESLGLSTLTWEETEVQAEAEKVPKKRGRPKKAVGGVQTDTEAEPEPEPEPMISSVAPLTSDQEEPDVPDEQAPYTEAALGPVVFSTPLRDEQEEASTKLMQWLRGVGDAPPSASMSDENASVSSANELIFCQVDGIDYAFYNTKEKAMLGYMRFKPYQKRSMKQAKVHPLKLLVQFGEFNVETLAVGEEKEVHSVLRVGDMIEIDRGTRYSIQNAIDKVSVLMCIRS

[2] = target: T1, GFP-LacI-dCENP-C (Drosophila …); test: LacI/LacO tethering and recruitment assay (immunofluorescence); bait fused to GFP-LacI tethered to chromosomal LacO arrays in human U2OS cells; HA- or V5-tagged prey transiently co-expressed; IF 48 h after transfection, prey intensity at the LacO spot or % of cells; no third Drosophila centromere protein co-expressed
[3] = target: T2, dCENP-A-GFP-LacI (Drosophila melanogaster), Q9V6Q2; test: LacI/LacO tethering and recruitment assay (immunofluorescence); as a1, but with a third Drosophila centromere protein (CAL1-V5, dCENP-A-HA or -V5, or HA-dCENP-C) co-expressed, as named in the row
T2 chain: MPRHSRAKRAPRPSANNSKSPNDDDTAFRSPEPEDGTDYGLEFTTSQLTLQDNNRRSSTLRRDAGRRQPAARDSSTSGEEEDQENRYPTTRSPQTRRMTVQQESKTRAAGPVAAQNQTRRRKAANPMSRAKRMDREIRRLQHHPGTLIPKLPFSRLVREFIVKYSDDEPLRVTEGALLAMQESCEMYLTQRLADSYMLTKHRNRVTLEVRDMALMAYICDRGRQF

[4] = target: T2, dCENP-A-GFP-LacI (Drosophila …); test: LacI/LacO tethering and recruitment assay (immunofluorescence); bait fused to GFP-LacI tethered to chromosomal LacO arrays in human U2OS cells; HA- or V5-tagged prey transiently co-expressed; IF 48 h after transfection, prey intensity at the LacO spot or % of cells; no third Drosophila centromere protein co-expressed
[5] = target: (dCENP-A/dH4) dimer (Drosophila melanogaster), Q9V6Q2; test: SEC-MALS; recombinant proteins; Superdex 200 10/300 Increase GL, 50 mM HEPES pH 8.0, 150 or 300 mM NaCl, 1 mM TCEP, 22°C, 100 μl of 1-5 mg/ml

% of cells with localization at LacO (with CAL1-V5) [1]: 73 % cells | % of cells with localization at LacO (without CAL1) [2]: 43 % cells
B1: dCENP-A-HA, Q9V6Q2 1-225 (natural protein)
chain: MPRHSRAKRAPRPSANNSKSPNDDDTAFRSPEPEDGTDYGLEFTTSQLTLQDNNRRSSTLRRDAGRRQPAARDSSTSGEEEDQENRYPTTRSPQTRRMTVQQESKTRAAGPVAAQNQTRRRKAANPMSRAKRMDREIRRLQHHPGTLIPKLPFSRLVREFIVKYSDDEPLRVTEGALLAMQESCEMYLTQRLADSYMLTKHRNRVTLEVRDMALMAYICDRGRQF

% of cells with recruitment at LacO (with CAL1-V5) [3]: 55 % cells | % of cells with recruitment at LacO (without CAL1-V5) [4]: 17 % cells
B2: HA-dCENP-C, Q9VHP9 1-1411 (natural protein)
chain: MSKPQNNDTLELDDILSQPVKDKERFAAFMMRKLAENKPAQNDNLFGNFKLDFDLDFEVPLIKKSQAKPKSKLPEVQPLGELVSKNSAATEKVNEPPVDQAPNENVPPRRSPTLSPNNRRSMRRSGNVPGSDKLRRHAIRRRSRSCGRQLLPEFEETVNLTRSISSPVNFLPEISSTPCTEKQKEEVAKNTTRVETDKPAEKPMELSQEPEPENPLQTKVTSPARNPILAAEIEQICKERQSSFHKNVLQLDYSGRAPYSRPPTPSSPSVAGLRRTYTMEKGPAPGQLLLSPSHRYDTPSKMPVVKAKRFNQELMVPDTPERQSHDPAWQSEPQPEFVVPETQPQDLGELVQTLSRSAISPIVVINTSNSNRSVRRDAVAMKSVPTSPVTALSSPPIAPSPRRSAAASPQKSIAQLPRVEENMDAIMTDDESDEHPSTVPLNLAPSGGNTTRQRRLRSSNRARATIESQESSMRLLNLHKSVNAKKSKPRKTAIPLNKAPSAPINGEQFARELTRMSNYEILDLRKRNSLNEIYPLNGHRNHRSEKLILEEEIQRELLRRNLMDEAEGLPKQQSSDDSNEDYIPVPPKTQSLRTKSNDRSQGRGRPRSTRRDLPMTTELVNYLGLSQTLETRRKSSKDGKRCLYTKGSSDHEDNDSLSPVKLPRLSKSIQIVPPPPVSLRYSQSLQNLPCSGKFDFDNVVMAAPPDFHDSVNSDAIEIAPPPPEYVVNTRGRSTSGRKSNKNDLVLPPPGYEGGQEEEHDERPSQPRCTAKELQQSTQNGRRAMENELVPPPIEYVEEENRNNEQSRRSTKNGNLVDRNTHNAVEYCEPPEPPEYDDSDHGQASILRRSGKKLQHSKQSVQKSNKEQIIAPSYENNEDYDSDEEPIYNEEYGKEESQNKNVTRRKSDKDEMASHTLECIEGPDPNWNSSCNKQNRNHQNASKSKENDKLANRSSKSQKLSNPRQNAVGTEKSVALSNRGEECTEKSSDVMESLRVNTPTPPIDQNSDDVPSRNPSPSRTLLSDDVPSTSRAALEFLQRSQNMSKSRPPDESSADVVFKKPLAPAPRAKSKKGKSEVDKLKLAKMPVEAEELNTTGIRRSKRGQVPLQMSWCHTMDPSKFNFMSGFIEPRSKNSKTKKGNLSKAKKASATKPKPTVEKNLPDNRGPLCSSTPRISEKLPGAIPHSESLGLSTLTWEETEVQAEAEKVPKKRGRPKKAVGGVQTDTEAEPEPEPEPMISSVAPLTSDQEEPDVPDEQAPYTEAALGPVVFSTPLRDEQEEASTKLMQWLRGVGDAPPSASMSDENASVSSANELIFCQVDGIDYAFYNTKEKAMLGYMRFKPYQKRSMKQAKVHPLKLLVQFGEFNVETLAVGEEKEVHSVLRVGDMIEIDRGTRYSIQNAIDKVSVLMCIRS

stoichiometry N ((dCENP-A/dH4) dimer per CAL1(1-160)) [5]: 1
B3: recombinant CAL1(1-160), Q9VEN2 1-160 (domain or fragment)
chain: MANAVVDEETLEAMVYERSKAWSSKMADFASLEDGMEIDVAEFDNLFHGEDEDPDLDDVAKEAVEDNVPDEAKLEMGHINATSVTELTLILCANEDNEAKAEIEEILNQTVPVVEEHKRKWREAGLDRILDTFDEKQIEHHVGRWMRRHNSVYLEASPPK
